B1: TPR t1 (parent)
chain: GACCAAUCUGCCCUCAGAGCUCGAGAACAUCUUCGGAUGCAGAGGAGGCAGGCUUCGGUGGCGCGAUAGCGCCAACGUCCUCAACCUCCAAUGCAUCCCACCACAUGAUGAUGCCUGAAGAGCCUUGGUUUUUUG

Variants of: B1
Test: polymerase ribozyme fitness, log enrichment relative to wild type (log ratio); higher = more active; in vitro selection for triplet polymerase activity
In short: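 Frozen incubation at −7 °C formed the core of a single, triplicate in vitro selection round applied to PCR-built, transcribed mutant libraries of each subunit of a heterodimeric triplet polymerase ribozyme. Extended constructs were gel-excised, captured with streptavidin beads and amplified by RT-PCR, and input and output libraries were Illumina-sequenced with a filter of ≥10 input reads and ≥1 read per output. Fitness is the logarithm of genotype enrichment relative to wild-type enrichment, with inverse-variance-weighted replicate averaging, and the logarithm is base 2.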

Row | Variant | polymerase ribozyme fitness (log ratio)
1 | G48U G57U C85A C114G U129A | -6.62
2 | C49U A50U A95G U96A A111G | -7.1
3 | G48C C101U U112C | 0.0907
4 | G47U G63A U116A | -4.47
5 | C49G G57U C82G U96G | -2.49
6 | G47U G52A | -2.71
7 | G47U U55C C56A C73G | -4.04
8 | G48A U67C | -3.66
9 | C49A C56A C64U U130C | -0.336
10 | C49U C70U | -1.33
11 | G48C C64U | -1.12
12 | G48U U59A U78G U116A | -3.29
13 | G48A G63A A75G | -1.21
14 | G48A U54A C62U C82U C85A C104A | -2.99
15 | C49U G63C C124U | 0.36
16 | G48U C56G C101U C114G | -4.75
17 | C49G A83G C88A C102U G120C | -5.33
18 | G48A G52A C101G | -2.71
19 | C49G U96A U112A | -0.269
20 | G47U C72A C76A C79A C80G C94G A100C U116G C124U U129A | -7.94
21 | C49U G69U U78C U81A C114G G117U G127U | -5.33

Row | Variant | polymerase ribozyme fitness (log ratio)
22 | C49A C72U G77U C115A | -1.36
23 | G47U G69C | -3.62
24 | G48A G61C | -1.66
25 | C49A C70U C80A U116C | -7.47
26 | G48A A83U C102A | -2.24
27 | C49A G113C G120U | -4.69
28 | G48C C53A C124U G128C | -3.02
29 | C49U G61U C86A | -1.79
30 | A50C C53U C72U G127A U133A | -3.63
31 | G48C A100U | -1.76
32 | G48U U59G C72U C94G | -1.86
33 | C49U U106A U116G G128A | -5.82
34 | G48U C72U C85A U92C G93C C101U | -3.44
35 | C49G A90U G117A | -3.8
36 | G48A G117C | -3.17
37 | G48C U92A C104U | -3.44
38 | C49U C89U | 0.0169
39 | G48U A50U U78C A90U C123A | -2.26
40 | G48A U112C U133G | 0.699
41 | G48C A50G C102A | -3.21
42 | C49U G120C C123G | -0.212

Row | Variant | polymerase ribozyme fitness (log ratio)
43 | G47U G48A | 0.823
44 | G48U U59C C86G | -2.19
45 | C49A U55C | -1.24
46 | G48C G51U C53U | -4.86
47 | G48C G57A | -0.626
48 | G48C G93U U96A A111G | -5.62
49 | A50C A75G A95C | -0.114
50 | C49U A91C C123A | -1.62
51 | C49A C70U C82A C104U A105U C123G G135U | -5.46
52 | C49G G51U | -3.2
53 | G47U C53G C56G | -2.42
54 | C49A C88G G120C | 0.68
55 | G48C G61U | 0.754
56 | G47U A105G | -3.69
57 | C49U A68G A84C U131A | -4.91
58 | C49A C72G C89G G113U | -5.04
59 | G48U U112A | 0.632
60 | C49A U96G | -0.658
61 | G47U C62U U78C G117C | -5.23
62 | C49U G57U G61A G120A | -0.511
63 | G47U A121C C123A G128A | -2.3

Row | Variant | polymerase ribozyme fitness (log ratio)
64 | C49G C82G A118U | -0.627
65 | G48U A105C | -2.86
66 | G48U A105U | -2.27
67 | C49G C99U G127U | -4.66
68 | C49A G77A C82A U92C G113U C114U | -2.49
69 | G48C G71C C123G | -0.00854
70 | C49U C62G G71A | -1.5
71 | G48U C56A U92A | -4.35
72 | C49U A103C U112C | -3.22
73 | G48U G110C | -4.65
74 | C49A G71A G77C | -1.63
75 | C49U C73G | -0.732
76 | C49U G71C C94G | -2.87
77 | C49A A118G | -0.216
78 | G48A G110A | -1.6
79 | G48U G58A G122A | -1.21
80 | C49U C82A U87C U96A | -1.66
81 | G48A C49U G61U U78A G122A U126A | -3.77
82 | G47U A50U U54A | -2.42
83 | G47U G48U C56A C73A A118G | -3.88
